The target of this assay is T1, Human NPR-B (Homo sapiens, UniProt P20594).
T1 construct: purchased R&D system
T1 sequence (P20594 23-458 limits assumed): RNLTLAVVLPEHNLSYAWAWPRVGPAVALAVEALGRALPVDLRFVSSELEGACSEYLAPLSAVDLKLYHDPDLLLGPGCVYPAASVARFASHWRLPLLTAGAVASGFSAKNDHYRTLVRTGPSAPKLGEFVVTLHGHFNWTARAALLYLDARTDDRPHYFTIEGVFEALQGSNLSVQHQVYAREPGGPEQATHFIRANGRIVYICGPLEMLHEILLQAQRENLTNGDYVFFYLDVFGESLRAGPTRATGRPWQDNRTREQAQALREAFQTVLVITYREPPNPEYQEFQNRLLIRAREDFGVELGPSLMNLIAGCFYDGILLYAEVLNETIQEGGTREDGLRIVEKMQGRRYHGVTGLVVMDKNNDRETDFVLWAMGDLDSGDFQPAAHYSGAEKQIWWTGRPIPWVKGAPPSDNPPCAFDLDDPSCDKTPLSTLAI
Description: Biacore SPR kinetic affinity binding to immobilized NPR-B. Particulars: Table 32 summary of affinity. As to the method: The biological function of these purified protein was assayed for their stimulation of production of cGMP, using NPR-B receptor positive cell line, NIH/3T3 and NPR-B negative cell line HEK293 cells. The determination of cGMP was assay by ELISA using commercial CNP as standard curves. […] Surface preparation. NBR-B was immobilized at different levels in three flow cells via standard amine coupling, leaving Fc 1 unmodified to serve as a reference. All surface plasmon resonance (SPR) analysis was performed on a BIAcore 3000 system using series CM5 sensor chips. Data processing and analysis were performed using BIAevaluation software. All sensorgrams were double referenced by subtracting the response on a reference flow cell and a blank sample. Human NPR-B (R&D system) was covalently attached to a CM5 chip via amine coupling. A surface density of 6600 RU was used for measurements with natriuretic peptides Sequential injections of CNP (0.5-8 nM) were performed at a flow rate of […] (300 s for each), followed by a dissociation time of 900 s. […] Kinetic parameters were calculated assuming a simple 1:1 (Langmuir) binding. […] All SPR analysis was performed on a BIAcore 3000 system using series CM5 sensor chips. Data processing and analysis were performed using BIAevaluation software. All sensorgrams were double referenced by subtracting the response on a reference flow cell and a blank sample. Human NPR-B (R&D system) was covalently attached to a CM5 chip via amine coupling. A surface density of 3100 RU was used for measurements with natriuretic peptides Sequential injections of AMI263 (FC4-CNP) (0.125-2 nM) were performed at a flow rate of […] (300 s for each), followed by a dissociation time of 900 s. […] Kinetic parameters were calculated assuming a simple 1:1 (Langmuir) binding. […] All SPR analysis was performed on a BIAcore 3000 system using series CM5 sensor chips. Data processing and analysis were performed using BIAevaluation software. All sensorgrams were double referenced by subtracting the response on a reference flow cell and a blank sample. Human NPR-B (R&D system) was covalently attached to a CM5 chip via amine coupling. […] Kinetic parameters were calculated assuming a simple 1:1 (Langmuir) binding. […] All SPR analysis was performed on a BIAcore 3000 system using series CM5 sensor chips. Data processing and analysis were performed using BIAevaluation software. All sensorgrams were double referenced by subtracting the response on a reference flow cell and a blank sample. Human NPR-B (R&D system) was covalently attached to a CM5 chip via amine coupling. A surface density of 3100 RU was used for measurements with natriuretic peptides Sequential injections of AMI263 (FC4-CNP) (0.5-300 nM) were performed at a flow rate of […] (300 s for each), followed by a dissociation time of 900 s. […] Kinetic parameters were calculated assuming a simple 1:1 (Langmuir) binding. […] All SPR analysis was performed on a BIAcore 3000 system using series CM5 sensor chips. Data processing and analysis were performed using BIAevaluation software. All sensorgrams were double referenced by subtracting the response on a reference flow cell and a blank sample. Human NPR-B (R&D system) was covalently attached to a CM5 chip via amine coupling.
Background: SPR reads the build-up and loss of mass on a sensor chip optically.

As to “AMI088: purified fusion protein Fc1-(G4S)4-CNP36 (IgG1 Fc), SEQ ID NO: 133”, the ka is reported as 4.09E+07 and the kd stood at 2.96E−05.

The values above are taken from patent US20250099622A1, “COMPOSITIONS AND METHODS FOR EXPRESSING THERAPEUTICS” (priority 2022, published 2025).
